This is an account of results in patent US20020141999A1 (IMMUNEX, published 2002).

For experiment [1], the target named is T1, human CD7, full length, on cells (human, UniProt P09564 26-240).
T1 construct: On transfected COS-1 or CV-1/EBNA cells, and endogenous on Jurkat, KG-1 and NK cells; also called HuCD7
T1 sequence: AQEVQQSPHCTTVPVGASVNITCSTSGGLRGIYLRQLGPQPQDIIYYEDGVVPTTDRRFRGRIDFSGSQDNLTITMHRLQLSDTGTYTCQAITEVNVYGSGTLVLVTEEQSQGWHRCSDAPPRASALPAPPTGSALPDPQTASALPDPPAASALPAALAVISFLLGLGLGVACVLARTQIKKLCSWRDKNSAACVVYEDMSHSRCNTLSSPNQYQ
The experiment can be described thus: Fc fusion binding to transfected cells (Example 5).

Experiment [2] addresses T2, murine K12, full length, on transfected cells (mouse, UniProt Q9JL59 29-212).
T2 construct: also called mouse K12; murine homologue of K12
T2 sequence: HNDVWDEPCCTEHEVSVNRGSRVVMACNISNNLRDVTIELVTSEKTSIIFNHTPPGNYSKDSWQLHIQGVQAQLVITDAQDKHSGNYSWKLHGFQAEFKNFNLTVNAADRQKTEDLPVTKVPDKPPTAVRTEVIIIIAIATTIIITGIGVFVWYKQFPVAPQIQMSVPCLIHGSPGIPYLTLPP
The experiment can be described thus: Fc fusion binding to transfected cells, detected with 125I anti-human Fc.

In experiment [3] the target is T3, human K12, full length, on transfected cells (human, UniProt Q8WVN6 29-248).
T3 construct: also called SECTM1
T3 sequence: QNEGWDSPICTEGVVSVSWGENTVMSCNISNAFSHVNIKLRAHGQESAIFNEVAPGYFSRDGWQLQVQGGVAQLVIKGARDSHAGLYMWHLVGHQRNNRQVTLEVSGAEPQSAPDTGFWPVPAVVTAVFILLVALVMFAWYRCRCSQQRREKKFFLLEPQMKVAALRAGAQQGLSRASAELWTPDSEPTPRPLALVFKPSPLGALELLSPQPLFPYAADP
The description is as above.

Experiment [4] addresses T4, murine CD7, full length, on cells (mouse, UniProt P50283 24-210).
T4 construct: On transfected COS-1 cells; For the proliferation read-out it is endogenous on BALB/c lymph node cells; also called MuCD7; mouse CD7
T4 chain: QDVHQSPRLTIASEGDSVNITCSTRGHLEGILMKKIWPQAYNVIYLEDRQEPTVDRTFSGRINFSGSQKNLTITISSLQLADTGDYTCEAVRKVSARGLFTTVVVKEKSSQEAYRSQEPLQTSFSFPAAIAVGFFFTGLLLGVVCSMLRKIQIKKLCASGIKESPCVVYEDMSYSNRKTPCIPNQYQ
The experiment can be described thus: HuK12-Fc on transfected COS-1 cells, 125I anti-human Fc, phosphorimager. On the procedure: COS-1 cells were transfected with an expression vector encoding full length HuCD7 (human CD7), HuCD7-TR (human CD7 containing an internal deletion of the 36 amino acid tandem repeat), MuCD7 and vector only cDNA using DEAE-Dextran. However, any of a large number of expression vectors that are commercially available from numerous companies (e.g., Clontech Inc., Palo Alto, Calif.) could also be used to express the desired cDNAs. Two days post transfection the cells were assayed for the capacity to bind HuK12-Fc as previously described for other Fc fusion proteins (Lyman et al.,1993, Cell 75:1157-1167) with the following modifications. The binding media (RPMI 1640, 1%FBS, 0.02% NaAzide, 20 mM HEPES, pH7.2) was modified to include […] MnCl₂. In some experiments, the transfected cells were incubated with zero, 20 ug/ml or 2 mg/ml of Con A in BM/MM prior to binding with the Fc proteins. Following incubation for 30 minutes at room temperature and the continued presence of Con A, 1 ug/ml of either HuK12-Fc or MuK12-Fc was then added to the appropriate slides. Binding of the Fc protein was detected with [¹²⁵I] mouse anti-Human Fc antibody as previously described (Lyman, 1993). After binding the iodinated antibody, the cells were washed and then the radioactivity was quantitated by Storm Phosphorimager. […]

Experiment [5] addresses T1, human CD7, full length, on cells. The experiment can be described thus: preliminary cell binding experiments on Jurkat and KG-1 cells.

B1: mouse K12-Fc fusion protein (extracellular domain of murine K12 fused to the Fc portion of human IgG1) (Fc fusion)
chain: HNDVWDEPCCTEHEVSVNRGSRVVMACNISNNLRDVTIELVTSEKTSIIFNHTPPGNYSKDSWQLHIQGVQAQLVITDAQDKHSGNYSWKLHGFQAEFKNFNLTVNAADRQKTEDLPVTKVPDKPPTAVRTE
notes: Exists as a dimer in solution; also called MuK12-Fc; not shown: Fc portion of human IgG1, as described in U.S. Pat. No. 5,457,035
B1: in experiment [1], the binding result is listed as “no binding”.

B2: human CD7-Fc fusion protein (Fc fusion)
chain: AQEVQQSPHCTTVPVGASVNITCSTSGGLRGIYLRQLGPQPQDIIYYEDGVVPTTDRRFRGRIDFSGSQDNLTITMHRLQLSDTGTYTCQAITEVNVYGSGTLVLVTEEQSQGWHRCSDAPPRASALPAPPTGSALPDPQTASALPDPPAASALP
notes: not shown: Fc portion of the CD7-Fc fusion is not described
On to B2, for which the binding result in experiment [2] was “no binding”.

B3: murine CD7-Fc fusion protein (Fc fusion)
chain: QDVHQSPRLTIASEGDSVNITCSTRGHLEGILMKKIWPQAYNVIYLEDRQEPTVDRTFSGRINFSGSQKNLTITISSLQLADTGDYTCEAVRKVSARGLFTTVVVKEKSSQEAYRSQEPLQTSFSFP
notes: also called mouse CD7-Fc; not shown: Fc portion of the CD7-Fc fusion is not described
On to B3, for which the binding result in experiment [3] is given as “no binding”.

B4: human K12-Fc fusion protein (extracellular domain of human K12 fused to the Fc portion of human IgG1) (Fc fusion)
chain: QNEGWDSPICTEGVVSVSWGENTVMSCNISNAFSHVNIKLRAHGQESAIFNEVAPGYFSRDGWQLQVQGGVAQLVIKGARDSHAGLYMWHLVGHQRNNRQVTLEVSGAEPQSAPDTG
notes: Exists as a dimer in solution; No linker or junction is described; also called HuK12-Fc; HuK12Fc; not shown: Fc portion of human IgG1, as described in U.S. Pat. No. 5,457,035
As for B4, in experiment [4], the “fold less binding than to full length HuCD7” value was ~4 fold. Further, the Ka in experiment [5] is ~1e+08 M⁻¹.
